{"source": "a protein production outcome set (Wang et al. 2014)", "experiment": "label from the status in PepcDB records", "data": [{"sequence": "MLTFAAAVLFLIITPGPGVMTTAGFGAAYGFRASLSYVVGLFIGTNLVMLAVMTGLAAVLLSVPGLRLVLLVLSVGYLLYLAALIALAGARVAFIEARSAPGVMRGVLLQAINPKAYAVNTSLITGFNYAPDAFLFEMFTKALILNAIWIPIHLAWLWAGAALHRLNLPHSTQRAINILMALSMLGVVALALWSASRVKA", "values": [{"measurement": "protein production", "result": "failed"}]}, {"sequence": "MDIPQAIKYYEQACDLDGDYGCFNAAYFYEYGIGTQKDITQAKTLAKQLREKINLSNINLDKKVSERIIGSVYSNKLEAYRDLSFRPHFIQGLSFYFYAPQSDERKLLSRIGFDSSHLARIAILWAREGDPEVAYQTAKLVSTLYFNNETKTIDIAEALKWLRISAEKGDADSQTLLGFLYEHAGLGLQPDGEKARKWYEMAAQQGNGEALYTLGRMYYSGVLVNVDYDKALYFFKKAYEKKLQEAADYLAQMYFNGQSVDVDCQQSWHYYDNSYIKKMTQRDYLDYCEKDRKRRNDFNQQLPELTLEKYAGLFGRIDNIPLCQIGFVVNTNKLIHVANLRVELILKNDAGVSDERMVAFPPLGLNTLGAEQGMGDSFKSMGYLLMKNGDLCDYHKLTFTVKSATATINGKKVDLLKTDNLHIIQNR", "values": [{"measurement": "protein production", "result": "failed"}]}, {"sequence": "VDKVDSREEKITEKFDEPATYIEDAEQLEGEETLVTPGTQGERTVTRKIVTVNGVETANEVVNEEIITPGVAATIKRGAKK", "values": [{"measurement": "protein production", "result": "failed"}]}, {"sequence": "MSLPSSRTRGRPARLDRARTVQTALDLLNESGLDTLTMRRLAQAMDVQAGALYRYFAAKQDLLTAMAEHMVDGVADAAGATGDGDWSERTARLARALRAALLAHRDGARVFAGTHATGPNTLRFADGLVGVLREAGFGDGDAARALYSVANFTVGHTLEEQAALTPGGGGPLDEATLREAVAAGTYPHLAATLPVLTSTDFTAHFEFGLRLLLDGLRAVRQ", "values": [{"measurement": "protein production", "result": "not failed"}]}, {"sequence": "MFKNNDFIYIEYTAKIKDTGEIVDTTNEEEAKKANIYDETRNYGPRLVILGENRLIKGLEEALYNFNLNEEKTIEIPPEKAYGERDNSKIKIVPLGELRRQGITAVPNRVLRLSDGSLAVIRSVSGGRVVLDLNHPLAGRTLVYNVKVVKVLNNAKDKIMALIERRFSSKYANGFNVELDDGKKSVRITIPKDLYLVEDLQINVYSLAYEIVNYVLADYTVEVLQQYNKSTFSSS", "values": [{"measurement": "protein production", "result": "failed"}]}, {"sequence": "MSLKKINTVLAAAFILFILWFGAEFILSPETTAPGFGLPSWPSGDGDGFLIIKGIRDVVLALVLGILLVTGHRRALGWALLVEALAAYGDMTAVLAHHGSVATALGVHCLTATLMVVNGLLIMRETRKVAAAPATPAPQPA", "values": [{"measurement": "protein production", "result": "failed"}]}, {"sequence": "MKSAYIFFNPKSGKDEQALAKEVKSYLIEHDFQDDYVRIITPSSVEEAVALAKKASEDHIDLVIPLGGDGTINKICGGVYAGGAYPTIGLVPAGTVNNFSKALNIPQERNLALENLLNGHVKSVDICKVNDDY", "values": [{"measurement": "protein production", "result": "failed"}]}, {"sequence": "MSTKGTILVTGGAGYIGSHTAVELLAHGYDVVIADNLVNSKREAIARIEKITGKTPAFHETDVSDERALARIFDAHPITAAIHFAALKAVGESVAKPIEYYRNNLDSLLSLLRVMRERAVKRIVFSSSATVYGVPERSPIDETFPLSATNPYGQTKLMAEQILRDVEAADPSWRVATLRYFNPVGAHESGLIGEDPAGIPNNLMPYVAQVAVGKLEKLRVFGSDYPTPDGTGVRDYIHVVDLARGHIAALDALERRDASLTVNLGTGRGYSVLEVVRAFEKASGRAVPYELVARRPGDVAECYANPAAAAETIGWKAERDLERMCADHWRWQENNPRGFV", "values": [{"measurement": "protein production", "result": "not failed"}]}, {"sequence": "MAVNVYSTSVTSENLSRHDMLAWVNDSLHLNYTKIEQLCSGAAYCQFMDMLFPGCVHLRKVKFQAKLEHEYIHNFKVLQAAFKKMGVDKIIPVEKLVKGKFQDNFEFIQWFKKFFDANYDGKDYNPLLARQGQDVAPPPNPGDQIF", "values": [{"measurement": "protein production", "result": "not failed"}]}, {"sequence": "MAVPTELDGGSVKETAAEEESRVLAPGAAPFGNFPHYSRFHPPEQRLRLLPPELLRQLFPESPENGPILGLDVGCNSGDLSVALYKHFLSLPDGETCSDASREFRLLCCDIDPVLVKRAEKECPFPDALTFITLDFMNQRTRKVLLSSFLSQFGRSVFDIGFCMSITMWIHLNHGDHGLWEFLAHLSSLCHYLLVEPQPWKCYRAAARRLRKLGLHDFDHFHSLAIRGDMPNQIVQILTQDHGMELICCFGNTSWDRSLLLFRAKQTIETHPIPESLIEKGKEKNRLSFQKQ", "values": [{"measurement": "protein production", "result": "failed"}]}, {"sequence": "MPESRTVALVTLGCARNEVDSEELAGRLEADGWKLVDDAEEADVAVVNTCGFVEAAKKDSVDALLEANDLKGHGRTQAVVAVGCMAERYGKELADALPEADGVLGFDDYADISDRLQTILNGGIHAAHTPRDRRKLLPISPAERQEAGAAVALPGHGPTDLPEGVAPASGPRAPLRRRLDGSPVASVKLASGCDRRCSFCAIPSFRGSFISRRPSDVLNETRWLAEQGVKEIMLVSENNTSYGKDLGDIRLLESLLPNLAEVDGIERVRVSYLQPAEMRPGLIDVLTSTEKVAPYFDLSFQHSAPNVLRAMRRFGDTDRFLELLDTIRSKAPEAGVRSNFIVGFPGESEADLAELERFLNHARLDAIGVFGYSDEEGTEAATYGDKLDEDVVAERLARVSRLAEELVSQRADERVGATVRVLVESVDPAGEGDGVRGRAEHQAPETDGQVLLTSGAGLSVGRMVDAKVVGTEGVDLVAEPLLGSPEWSEEAGRLEHHHHHH", "values": [{"measurement": "protein production", "result": "failed"}]}, {"sequence": "MDYFGLAAKYIPFVTLGLLPIMNPLSTVPLFLELTKRMSPERKHQQARRACLYALSILAVFLFIGNGIITLFGISLAGIRVAGGLIILVLAFRMLFSGEGEEASIETEATEIKRANLDFSFSPLAMPSLAGPGSIAVVMSYGSQIPDDALVFGHFIVICGISITVLIAYIALAGSAWIAKFLGEHGIQAVTKIMGFLLTCIAVQFIASGIRDFSQTL", "values": [{"measurement": "protein production", "result": "failed"}]}, {"sequence": "KQLLTLKIKCSNQPERQILEKQLPDSMTVQKVKGLLSRLLKVPVSELLLSYESSKMPGREIELENDLQPLQFYSVENGDCLLVR", "values": [{"measurement": "protein production", "result": "not failed"}]}, {"sequence": "MAIGIAANRLELLQIADAVAREKGIEKEVVIEAIEDALQKAARARYGAEHDIRVKIDPKTGETTQKRVIEVVSDDAELEGEIGKMPFSIAKRTWRDAEIGKVYEEVLPPFEIGRVQTQMARQVVMHKVREAERERQYDEYKDRVGEIVNGSVKRVEYGNVIVDLGRGEGIMRRDQSIPRENFNVGDRIRAYIYDVRRETKGPQIMLSRAHGGFMAKLFAQEVPEVYDGVIEIRAVARDPGSRAKMAVISNDGSIDPVGACVGMRGSRVQAVVAELQGEKIDIIQWSEDEATFIVNALAPAEVSKVVMDEEDERVEVVVPDEQLSLAIGRRGQNVRLASQLTGWQIDIMTESQESERRQREFAERTALFQEALDVDEVIAQLLVTEGFAAVEDVAYVEPHEIASIEGFDEETAEELQTRAREFLEKEAAELDAKRKALGVEDELLTIEGVTLAMAVALGEGDVKSIEDLAGLVPDDMRGWFENKGGERVREPGILESFNLSPEDAEALIMRARIAMGWVEAPPEPEPEPEFEEESSAEGDVVAEAEEEA", "values": [{"measurement": "protein production", "result": "failed"}]}, {"sequence": "MLVLILLSSSLAIFAIINLSYSLGDAKAINASGSLRMQSYRLMFYANSGSEAAQEKITEFENTLHSEALHPSKSWLSPKKIAAQYQLVIDKWLVMKYYIEQENSRDYAASLKDFVDTIDLLVLEMEHHAAFKLRLLAASQIFGLGLMLSIAFLAVRFTKRKVVVPLQQLMESANTISKGNFEIEMPETEYIELTALTDALQKTARELATLYGNLESQVAEKTLALTRANNELAFLYDTLLTLNAKKLDYKALKAALNQLKDYESIDYLRLIIQYPEQELEMIEANGGWPESADNSTRFPLQFEQANLGYLELISAQDINTPLFKNFAIMLTRSIVIHNATEQRQQLALMEERGVIARELHDSLGQVLSFLKIQISLLRKNLDHSCRSPAVEVQLTEINEGVSTAYVQLRELLSTFRLTIKEPNLKNAMEAMLEQLRANTDIKIHLDYKLSPQWLEAKQHIHILQITREATLNAIKHANASHINIRCYKDDRGMVNISVSDNGVGIGHIKERDQHFGIGIMHERASKLDGEVVFSSNDTHTNSTATTEQRHQENPDSPLESHNTSNLSQGTIVTLIFPSQQEPTHG", "values": [{"measurement": "protein production", "result": "failed"}]}, {"sequence": "MSDLTFNKIAGGVLLTGLVIFGLREASSIVFSKPEVEKAGYEIAVQEESAGGAAVVESLPDWNAVLTPANVAAGQAVAAKCAACHKFDASNANGTGPGLWDVVGRKPAAHADFNYSTGMKEFAAKTPVWDYDHLYEFLKAPGKYVSGTNMTFVGLKKQEDRIAMIAYMHSLGSKLPVPPPRPVAAPAPAEGAAPAAEGAAPAAEGAAPAAAGAAPAAPAAAAPAAPKA", "values": [{"measurement": "protein production", "result": "failed"}]}, {"sequence": "MKVCLQCENFFSSADWACPSCGYQPERLNGIEAHASEFAHGGGGFKPEYFSELSRLEAGNFWFRARNELILWALRTYKPNAGAFLEVGCGTGFVLSGIARACPEIALNGSEIFLAGLFHAAKRVPSTHFMQMDARRVPFVEEFDAIGAFDVLEHIEEDETVLAQLHNAIKPSGVLLLTVPQHPRLWSASDDYACHVRRYTRVEIEQKVLTAGFELLRSSSFVTSLLPVMMLSRVLQKRKTKDFDPAGELKINAALNKVFYGLMMLELAGIRLGMNYPVGGSRLVVAKKQSALEHHHHHH", "values": [{"measurement": "protein production", "result": "not failed"}]}, {"sequence": "MEVIREQEFVNQYHYDARNLEWEEENGTPKTNFEVTFQLANRDEAAKVTSIVAVLQFVIVRDEFVISGVISQMAHIQGRLINEPSEFSQDEVENLAAPLLEIVKRLTYEVTEIALDRPGVTLEF", "values": [{"measurement": "protein production", "result": "not failed"}]}, {"sequence": "NGMDEEQRQKRRRIEVALIEYRETLEEQGMKNPEEIERKVEINRKRLEVDYGLS", "values": [{"measurement": "protein production", "result": "not failed"}]}, {"sequence": "MRKKEENLNTASGLRIAMILLGIAVTPVLLSSSSLGNQLSSSSLISVVLLGGVILTLLSAITISVGEKARLPTYGIVKYSFGEKGAIAINILMAISLFGWIAVTANMFGHSVHDLLAQHGLEVPLALLVAAGCVIFVASTAFGFTVLGKIAQVAVPVIALVLCYILYVATHTEVAVPAAIVEMNTGVAVSTVVGTIIVLVATLPDFGSFVHNRKHALIAAGVTFLVAYPLLYWAGATPSAISGQGSLLGAMAVFGAVLPAALLLIFACVTGNAGNMFQGTLVVSTLLTRFPKWQITVALGILSAIVGSMDIMAWFIPFLLFLGIATPPVAGIYIADFFLYRRNGYQESVLAQESQIKVLTFAAWIIGAAVGFMTVKGLFTLTTIPSVDSILVACIAYAILSRASQHR", "values": [{"measurement": "protein production", "result": "failed"}]}, {"sequence": "MKKTTLFVLGLLFNSFLNAVDGISKTDLSSLNLAEDSAPLNHPNAQKLSLKNAWTRVLSNHEGLHAQEYAIKRASKMKLAAKLSFLPQIDLSAFYVYLSNPIKMDFASQKQPGVQKATNQIHQGIQNIQQNIPSQVLTPQIQAGMQGVMQGFGALSSTLEAPLLFSKQNVVIGALSIIYPLYMGGARFTMVRIADLMQKDANEVYRLKKLSTFQELVSVYYGMVLNAEVAETLEEVEKGHYKHFQNALKMQKVGQIARVETLGAQVAYDKAHIASVKAKDVLEVSQLSFNSILSSKDDLVPSSKLEIRTEKNLPDLSFFVSSTLNSYPVLKTLENQIQISKENTKLQIAKFLPQVSFFGSYIMKQNNSVFEDMIPSWFVGVAGRMPILSPTGRIQKYQASKLAELQVSSEQIQAKKNMELLVNKTYKETLSYLKEYKSLLSSVELAKENLKLQEQAFLQGLSTNAQVIDARNTLSSIVVEQKSVAYKYIVSLANLMALSDHIDLFYEFVY", "values": [{"measurement": "protein production", "result": "failed"}]}, {"sequence": "MMSTPALRPYLPEDAAVTAAIFVASIEQLTADDYSEEQQEAWASAADDEAKFAARLSGQLTLIATLQGVPVGFASLKGPDHIDMLYVHPDYVGRDVGTTLIDALEKLAGARGALILTVDASDNAAEFFAKRGYVAKQRNTVSINGEWLANTTMTKSLADSAAPGASS", "values": [{"measurement": "protein production", "result": "not failed"}]}, {"sequence": "MPGGRRRGFDDQVALQTAMELFWRQGYEGTSITDLTKALGINPPSLYAAFGSKRDLFEKTLDRYMCERTLQLEEAMVRPTAHEAVLDFLTGRVEVFTAPGQPFGCMTVQAGLASGEPHHEIVDLLTAAREQMRQTVLDRFEKALADGDLPAGTDCTALARYVMAAVYGLSVEAASGAPREELTAAAILAAQVVPRAQM", "values": [{"measurement": "protein production", "result": "not failed"}]}, {"sequence": "MHKEIAKELLLLAGGKNNIISISHCTTRLRFDVKDETKIDIHAIENLQGVQGTFFRYGLFQIIFGAGVVNKIYKEVVHVWETAPSEEPVHQKKASRKLNPAAAFAKTLSDI", "values": [{"measurement": "protein production", "result": "failed"}]}]}
